Target: T1, mScarlet-V5-TurboID-Rab9a (human, UniProt P51151 1-201)
T1 sequence (looked up): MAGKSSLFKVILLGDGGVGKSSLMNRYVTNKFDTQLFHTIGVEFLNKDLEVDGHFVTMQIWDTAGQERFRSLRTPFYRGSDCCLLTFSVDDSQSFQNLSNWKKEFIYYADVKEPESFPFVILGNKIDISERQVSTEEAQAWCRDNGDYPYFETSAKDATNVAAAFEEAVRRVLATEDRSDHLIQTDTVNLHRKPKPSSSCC
Assay: proximity labelling

B1: Reticulon-3L (Rtn3L), endogenous (natural protein, human (endogenous in HeLa), UniProt O95197-2 1-1013, looked up)
chain: MAEPSAATQSHSISSSSFGAEPSAPGGGGSPGACPALGTKSCSSSCAEGLSSLCSDEPSSEIMTSSFLSSSEIHNTGLTILHGEKSHVLGSQPILAKEGKDHLDLLDMKKMEKPQGTSNNVSDSSVSLAAGVHCDRPSIPASFPEHPAFLSKKIGQVEEQIDKETKNPNGVSSREAKTALDADDRFTLLTAQKPPTEYSKVEGIYTYSLSPSKVSGDDVIEKDSPESPFEVIIDKAAFDKEFKDSYKESTDDFGSWSVHTDKESSEDISETNDKLFPLRNKEAGRYPMSALLSRQFSHTNAALEEVSRCVNDMHNFTNEILTWDLVPQVKQQTDKSSDCITKTTGLDMSEYNSEIPVVNLKTSTHQKTPVCSIDGSTPITKSTGDWAEASLQQENAITGKPVPDSLNSTKEFSIKGVQGNMQKQDDTLAELPGSPPEKCDSLGSGVATVKVVLPDDHLKDEMDWQSSALGEITEADSSGESDDTVIEDITADTSFENNKIQAEKPVSIPSAVVKTGEREIKEIPSCEREEKTSKNFEELVSDSELHQDQPDILGRSPASEAACSKVPDTNVSLEDVSEVAPEKPITTENPKLPSTVSPNVFNETEFSLNVTTSAYLESLHGKNVKHIDDSSPEDLIAAFTETRDKGIVDSERNAFKAISEKMTDFKTTPPVEVLHENESGGSEIKDIGSKYSEQSKETNGSEPLGVFPTQGTPVASLDLEQEQLTIKALKELGERQVEKSTSAQRDAELPSEEVLKQTFTFAPESWPQRSYDILERNVKNGSDLGISQKPITIRETTRVDAVSSLSKTELVKKHVLARLLTDFSVHDLIFWRDVKKTGFVFGTTLIMLLSLAAFSVISVVSYLILALLSVTISFRIYKSVIQAVQKSEEGHPFKAYLDVDITLSSEAFHNYMNAAMVHINRALKLIIRLFLVEDLVDSLKLAVFMWLMTYVGAVFNGITLLILAELLIFSVPIVYEKYKTQIDHYVGIARDQTKSIVEKIQAKLPGIAKKKAE
modifications: biotinylated by TurboID in cells (sites not given)
B1 was tested. Which “fold Rtn3L biotinylation, WT Rab9a against Rab9aΔFSV” value did it give?
Its value is 10 fold.
